Legend:
Experiment in all cases: SPR, Ab captured, PD-1 analyte
[1] = molecular target: T1, recombinant cynoPD-1 (construct not stated) (cynomolgus monkey, UniProt B0LAJ3 25-170)
T1 construct: not shown: probably His as elsewhere
Procedure: (§1) Recombinant humanized antibody variants of ZJN296 were expressed as human IgG1 in HEK293 cells. For SPR analysis (Biacore 8K, GE Healthcare) anti-human Fc IgG (Bethyl, A80-304P) was immobilized on CM5 chips (Cytiva) using 1×HBS-EP+ running buffer. […] 10 mM glycine (pH 1.5) as regeneration buffer was injected to flow cells following every dissociation phase.

[2] = molecular target: T2, recombinant hPD-1 (construct not stated) (human, UniProt Q15116 25-167, limits assumed)
T2 construct: also called huPD-1; Human PD1
T2 sequence (Q15116 25-167 limits assumed): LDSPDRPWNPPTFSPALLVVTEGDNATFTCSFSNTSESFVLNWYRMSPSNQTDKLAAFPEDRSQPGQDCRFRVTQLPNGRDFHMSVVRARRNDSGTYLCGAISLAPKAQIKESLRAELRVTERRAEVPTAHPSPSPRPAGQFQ
Procedure: as §1

[3] = molecular target: T3, cynoPD-1 His (AcroBiosystems PD1-C5223) (cynomolgus monkey, UniProt B0LAJ3 25-170)
T3 construct: also called cPD-1; cynomolgus PD-1 His-tagged
T3 sequence (B0LAJ3 entry or part of it limits assumed): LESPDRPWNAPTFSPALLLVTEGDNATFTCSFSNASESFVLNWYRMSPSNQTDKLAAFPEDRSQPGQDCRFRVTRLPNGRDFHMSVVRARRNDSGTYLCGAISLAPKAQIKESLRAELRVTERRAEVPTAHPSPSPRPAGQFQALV
Procedure: (§2) 10 mM glycine (pH 1.5) as regeneration buffer was injected to flow cells following every dissociation phase.

hPD-1 His-tagged = molecular target: T4, hPD-1 His-tagged (human, UniProt Q15116 25-167)
T4 construct: also called recombinant hPD-1 (AcroBio)
T4 sequence (Q15116 25-167 limits assumed): as the sequence (Q15116 25-167 limits assumed) above
Procedure: as §2

T1 sequence (B0LAJ3 entry or part of it limits assumed): as the sequence (B0LAJ3 entry or part of it limits assumed) above

Kd [1]	koff [1]	kon [1]	Kd [2]	koff [2]	kon [2]	Kd [3]	koff [3]	kon [3]	Kd (hPD-1 His-tagged)	koff (hPD-1 His-tagged)	kon (hPD-1 His-tagged)	Binder
104 nM	0.00641 s⁻¹	61500 M⁻¹ s⁻¹	8.7 nM	0.000495 s⁻¹	56900 M⁻¹ s⁻¹							ZJN296-0 (antibody, human IgG1, V domains shown, human IgG1; also called humanized ZJN296-0; GH + GL) VH: QVQLVQSGAEVKKPGASVKVSCKASGYDFTSHWMHWVRQAPGQGLEWMGAIDPSDSYTNYNQKFKGRVTMTTDTSTSTAYMELRSLRSDDTAVYYCARSPFDYWGQGTTVTVSS VL: DIQMTQSPSSLSASVGDRVTITCKASQDVSTAVAWYQQKPGKAPKLLIYSASYRYTGVPSRFSGSGSGTDFTFTISSLQPEDIATYYCQQHYSFPFTFGQGTKLEIK
43.9 nM	0.00279 s⁻¹	63600 M⁻¹ s⁻¹	3.22 nM	0.000201 s⁻¹	62600 M⁻¹ s⁻¹							ZJN296-6 (antibody, V domains shown, human IgG1; also called GH + T071V + T073R, GL) VH: QVQLVQSGAEVKKPGASVKVSCKASGYDFTSHWMHWVRQAPGQGLEWMGAIDPSDSYTNYNQKFKGRVTMTVDRSTSTAYMELRSLRSDDTAVYYCARSPFDYWGQGTTVTVSS VL: DIQMTQSPSSLSASVGDRVTITCKASQDVSTAVAWYQQKPGKAPKLLIYSASYRYTGVPSRFSGSGSGTDFTFTISSLQPEDIATYYCQQHYSFPFTFGQGTKLEIK
107 nM	0.00511 s⁻¹	47600 M⁻¹ s⁻¹	6.57 nM	0.000369 s⁻¹	56100 M⁻¹ s⁻¹							ZJN296-3 (antibody, V domains shown, human IgG1; also called GH + T073R, GL) VH: QVQLVQSGAEVKKPGASVKVSCKASGYDFTSHWMHWVRQAPGQGLEWMGAIDPSDSYTNYNQKFKGRVTMTTDRSTSTAYMELRSLRSDDTAVYYCARSPFDYWGQGTTVTVSS VL: DIQMTQSPSSLSASVGDRVTITCKASQDVSTAVAWYQQKPGKAPKLLIYSASYRYTGVPSRFSGSGSGTDFTFTISSLQPEDIATYYCQQHYSFPFTFGQGTKLEIK
72.7 nM	0.00433 s⁻¹	59600 M⁻¹ s⁻¹	5.72 nM	0.000324 s⁻¹	56500 M⁻¹ s⁻¹							ZJN296-2 (antibody, V domains shown, human IgG1; also called GH + T071V, GL) VH: QVQLVQSGAEVKKPGASVKVSCKASGYDFTSHWMHWVRQAPGQGLEWMGAIDPSDSYTNYNQKFKGRVTMTVDTSTSTAYMELRSLRSDDTAVYYCARSPFDYWGQGTTVTVSS VL: DIQMTQSPSSLSASVGDRVTITCKASQDVSTAVAWYQQKPGKAPKLLIYSASYRYTGVPSRFSGSGSGTDFTFTISSLQPEDIATYYCQQHYSFPFTFGQGTKLEIK
						3 nM	0.00016 s⁻¹	52000 M⁻¹ s⁻¹	0.5 nM	2.9e-05 s⁻¹	57000 M⁻¹ s⁻¹	21A08Ap1 (antibody, V domains shown, IgG with lambda light chain; also called 21A08p1; 21A8Ap1) VH: EVQLLESGGGLVQPGGSLRLSCAASGFTFSINAMTWVRQAPGKGLEWVSTISGSGFSTYYADSLKGRFTISRDNSKNTLYLQMNSLRAEDTAVYYCAKEVYGDYWGQGTLVTVSS VL: RSVLTQPPSASGTPGQRVSISCSGASSNIGSQSVFWYQQLPGTAPKLLIYSNNQRPSGVPDRFSGSKSGTSASLAISGLRSEDEADYYCAAWDDSLSIWVFGGGTKLTVL
						3.2 nM	0.00019 s⁻¹	59000 M⁻¹ s⁻¹	0.66 nM	4.2e-05 s⁻¹	64000 M⁻¹ s⁻¹	21A08Ap2 (antibody, V domains shown, IgG with lambda light chain) VH: EVQLLESGGGLVQPGGSLRLSCAASGFTFSINAMTWVRQAPGKGLEWVSTISGSGFSTYYADSLKGRFTISRDNSKNTLYLQMNSLRAEDTAVYYCAKEVYGDYWGQGTLVTVSS VL: RSVLTQPPSASGTPGQRVSISCSGASSNIGSSSVFWYQQLPGTAPKLLIYSNNQRPSGVPDRFSGSKSGTSASLAISGLRSEDEADYYCAAWDDSLSIWVFGGGTKLTVL
						4.67 nM	0.00025 s⁻¹	55000 M⁻¹ s⁻¹	0.58 nM	3.5e-05 s⁻¹	60000 M⁻¹ s⁻¹	21A08Ap3 (antibody, V domains shown, IgG) VH: EVQLLESGGGLVQPGGSLRLSCAASGFTFSINAMTWVRQAPGKGLEWVSTISGSGFSTYYADSLKGRFTISRDNSKNTLYLQMNSLRAEDTAVYYCAKEVYGDYWGQGTLVTVSS VL: not shown

Reference: patent publication US20260207767A1 (ANAVEON, published 2026)
